Results taken from publication PMC8501640, “Altered Env conformational dynamics as a mechanism of resistance to peptide-triazole HIV-1 inactivators” (Retrovirology, 2021).
pEC50, pKd: −log10 of the molar value.

How the values were obtained:
[1] = target: HIV-1 HxBc2 gp120, wild type, monomeric (HIV-1 (HxBc2 strain)) (UniProt P04578); assay: SPR
[2] = target: HIV-1 HxBc2 gp120, wild type, monomeric (HIV-1 (HxBc2 strain)) (UniProt P04578); assay: ITC
[3] = target: HIV-1 HxBc2 gp120 V255I, monomeric (HIV-1 (HxBc2 strain)) (UniProt P04578); assay: SPR; Biacore 3000, 25 °C, PBS-P (10 mM phosphate, 150 mM NaCl, pH 7.4, 0.005% P-20); gp120 monomers amine-coupled to CM5 chip (1800–2200 RU), analytes flowed at 50 µL/min; AAR029b and sCD4 fitted to a Langmuir 1:1 model, KR13 to a three-state binding/isomerization model
[4] = target: HIV-1 HxBc2 gp120 V255I/S143N, monomeric (HIV-1 (HxBc2 strain)) (UniProt P04578); assay: as above
[5] = target: HIV-1 HxBc2 gp120 V255I, monomeric (HIV-1 (HxBc2 strain)) (UniProt P04578); assay: ITC; VP-ITC, 25 °C, 1 × PBS pH 7.4; 60–100 µM PT titrated in 8 µL steps into 2–8 µM monomeric HxBc2 gp120; single site-binding model
[6] = target: HIV-1 HxBc2 gp120 V255I/S143N, monomeric (HIV-1 (HxBc2 strain)) (UniProt P04578); assay: as above
[7] = target: HIV-1 HxBc2 gp120 V255I, monomeric (HIV-1 (HxBc2 strain)) (UniProt P04578)
[8] = target: HIV-1 NL4-3 Env S143N (HIV-1 (NL4-3 strain))
[9] = target: HIV-1 HxBc2 Env S143N (HIV-1 (HxBc2 strain)) (UniProt P04578)
[10] = target: HIV-1 HxBc2 Env V255T (HIV-1 (HxBc2 strain)) (UniProt P04578)
[11] = target: HIV-1 HxBc2 gp120 V255I/S143N, monomeric (HIV-1 (HxBc2 strain)) (UniProt P04578)
[12] = target: HIV-1 NL4-3 Env V255T (HIV-1 (NL4-3 strain))
[13] = target: HIV-1 NL4-3 Env V255I/S143N (HIV-1 (NL4-3 strain))
[14] = target: HIV-1 NL4-3 Env V255I (HIV-1 (NL4-3 strain))
[15] = target: HIV-1 NL4-3 Env V255T/S143N (HIV-1 (NL4-3 strain))
[16] = target: HIV-1 HxBc2 Env V255T/S143N (HIV-1 (HxBc2 strain)) (UniProt P04578)
[17] = target: HIV-1 HxBc2 gp120 WT monomer (Human immunodeficiency virus type 1 group M subtype B, UniProt P04578); assay: Surface plasmon resonance, WT gp120; format: binding
Procedure: (§1) SPR experiments were performed on a Biacore 3000 biosensor (Global Cytiva Lifesciences) at 25 °C using PBS-P (10 mM Phosphate, 150 mM NaCl, pH 7.4, 0.005% P-20) as the running buffer. A CM5 sensor chip was docked and derivatized by amine coupling with HIV-1HxBc2 WT and mutant gp120 subunits using freshly prepared 1:1 50 mM NHS (N-hydroxysuccinamide):200 mM EDC (1-ethyl-3-(3-(dimethylamino)propyl) carbodiimide). […] The equilibrium dissociation constant was calculated as KD = k−1/k1.
(§2) Rate constants k1 and k-1 are defined as they are in the 1:1 binding model, while k2 and k-2 are first order rate constants describing isomerization and de-isomerization, respectively. Equations describing the time course of the interactions can be found in Additional file 1: Method S1. For the fit, it was assumed that the states Env·PT and Env·PT^∗ had the same SPR signal. Rate constants were determined using a least-squares gradient-step algorithm coded in Visual Basic and implemented through Microsoft Excel.

HxBc2 gp120 WT monomer = HxBc2 gp120 WT monomer (Human immunodeficiency virus type 1 group M subtype B, UniProt P04578); assay: Isothermal titration calorimetry, WT gp120; format: binding, HIV-1; settings: 25 °C
Procedure: (§3) Heats were obtained at 25 °C by injection of 8 μL of PT (100 μM) into a sample cell of a VP-ITC containing 1.4 mL recombinant HxBc2 gp120 (6–8 μM). Solid lines represent fits to a single site binding model.
(§4) The resulting heat changes upon injection were integrated over a time range of 240 s, and the obtained values were fit to a standard single site-binding model using Origin® software.

BaL.01 viruses = tested on: BaL.01 viruses; parameters: method as in PMID 24330857, PMID 26331669; settings: ref [16], [21], read-out: EC50 of induced gp120 shedding; cited from earlier work
[18] = target: HIV-1 HxBc2 gp120 V255I/S143N monomer (Human immunodeficiency virus type 1 group M subtype B, UniProt P04578, S143N/V255I); assay: Surface plasmon resonance, V255I/S143N gp120; format: binding
Procedure: as §1, §2

[19] = target: HxBc2 gp120 V255I monomer (Human immunodeficiency virus type 1 group M subtype B, UniProt P04578, V255I); assay: Isothermal titration calorimetry, V255I gp120; format: binding, HIV-1
Procedure: as §3, §4

CEM-GFP cells = assay: WST-1 cytotoxicity assay; format: cell-based
Procedure: The cytotoxicity was determined on CEM-GFP cells via a colorimetric assay to measure the relative proliferation rates of cells in culture. […] After 18 h of incubation, the media containing compounds were discarded and treated with 10% (v/v) WST-1 (a tetrazolium salt) in fresh media for one hour at 37 °C. The cell viability was determined by measuring the absorbance at 450 nm using a Tecan Infinite F50 plate reader.
Figure S1. […] Data represent means and standard deviations of three independent experiments performed in triplicate.

[20] = target: HxBc2 gp120 V255I/S143N monomer (Human immunodeficiency virus type 1 group M subtype B, UniProt P04578, S143N/V255I); assay: Isothermal titration calorimetry, V255I/S143N gp120; format: binding, HIV-1; settings: 25 °C
Procedure: as §3, §4

[21] = target: HIV-1 HxBc2 gp120 V255I monomer (Human immunodeficiency virus type 1 group M subtype B, UniProt P04578, V255I); assay: Surface plasmon resonance, V255I gp120; format: binding
Procedure: as §1, §2

[22] = de-isomerization, three-state model
[23] = isomerization, three-state model
[24] = V255I and V255I/S143N vs WT gp120

Molecule: KR13, linear peptide triazole thiol
- pKd [1]: 8.96
- k1 (association step of the three-state model) [1]: 290000 M⁻¹ s⁻¹
- k2 (isomerization step of the three-state model) [1]: 0.007 s⁻¹
- k-1 (dissociation step of the three-state model) [1]: 0.0096 s⁻¹
- k-2 (de-isomerization step of the three-state model) [1]: 0.00025 s⁻¹
- pKd [2]: 7.80
- dH [2]: -19 kcal/mol
- stoichiometry N [2]: 1.1
- k1 (association step of the three-state model) [3]: 230000 M⁻¹ s⁻¹
- k2 (isomerization step of the three-state model) [3]: 0.0084 s⁻¹
- k-1 (dissociation step of the three-state model) [3]: 0.014 s⁻¹
- k-2 (de-isomerization step of the three-state model) [3]: 0.00072 s⁻¹
- k1 (association step of the three-state model) [4]: 280000 M⁻¹ s⁻¹
- k2 (isomerization step of the three-state model) [4]: 0.009 s⁻¹
- k-1 (dissociation step of the three-state model) [4]: 0.018 s⁻¹
- k-2 (de-isomerization step of the three-state model) [4]: 0.001 s⁻¹
- dH [5]: -13 kcal/mol
- stoichiometry N [5]: 1
- dH [6]: -12 kcal/mol
- stoichiometry N [6]: 1.1
- IC50 of inhibition of single-round infection of HOS.T4.X4 cells by HIV-1 pseudotyped with HxBc2 Env (luciferase) [7]: 91 nM
- IC50 of inhibition of single-round infection of HOS.T4.X4 cells by HIV-1 pseudotyped with NL4-3 Env (luciferase) [8]: 3.5 nM
- IC50 of inhibition of single-round infection of HOS.T4.X4 cells by HIV-1 pseudotyped with HxBc2 Env (luciferase) [9]: 1.4 nM
- IC50 of inhibition of single-round infection of HOS.T4.X4 cells by HIV-1 pseudotyped with HxBc2 Env (luciferase) [10]: 330 nM
- IC50 of inhibition of single-round infection of HOS.T4.X4 cells by HIV-1 pseudotyped with HxBc2 Env (luciferase) [11]: 4600 nM
- IC50 of inhibition of single-round infection of HOS.T4.X4 cells by HIV-1 pseudotyped with NL4-3 Env (luciferase) [12]: 360 nM
- IC50 of inhibition of single-round infection of HOS.T4.X4 cells by HIV-1 pseudotyped with NL4-3 Env (luciferase) [13]: 3700 nM
- IC50 of inhibition of single-round infection of HOS.T4.X4 cells by HIV-1 pseudotyped with NL4-3 Env (luciferase) [14]: 120 nM
- IC50 of inhibition of single-round infection of HOS.T4.X4 cells by HIV-1 pseudotyped with NL4-3 Env (luciferase) [15]: 6200 nM
- IC50 of inhibition of single-round infection of HOS.T4.X4 cells by HIV-1 pseudotyped with HxBc2 Env (luciferase) [16]: 7100 nM

Molecule: CC[C@H](C)[C@H](NC(=O)[C@@H](N)CCCNC(=N)N)C(=O)N[C@@H](CC(N)=O)C(=O)N[C@@H](CC(N)=O)C(=O)N[C@H](C(=O)N1CC(n2cc([C]34[CH]5[CH]6[CH]7[CH]3[Fe]6754389%10[CH]4[CH]3[CH]8[CH]9[CH]4%10)nn2)C[C@H]1C(=O)N[C@@H](Cc1c[nH]c2ccccc12)C(=O)N[C@@H](CO)C(=O)N[C@@H](CCC(=O)O)C(=O)N[C@@H](C)C(=O)N[C@@H](CCSC)C(=O)N[C@@H](CCSC)C(=O)NCCC(=O)N[C@@H](CCC(N)=O)C(=O)NCCC(=O)N[C@@H](CS)C(N)=O)[C@@H](C)CC (stereo partly drawn) [KR13]
- SPR k1 ([17]; PT association): 2.9 (M^−1 s^−1) × 10^–5
- SPR k-1 ([17]; PT dissociation): 9.6 (s^−1) × 10^3
- SPR k-2 [17, 22]: 0.25 (s^−1) × 10^3
- SPR k2 [17, 23]: 7.0 (s^−1) × 10^3
- ITC binding stoichiometry n (HxBc2 gp120 WT monomer): 1.1 ± 0.01
- ITC −TΔS (HxBc2 gp120 WT monomer): 7.8 ± 3.0 kcal/mol
- pEC50 (BaL.01 viruses): 7.49
- SPR k1 ([18]; PT association): 2.8 (M^−1 s^−1) × 10^–5
- SPR k-1 ([18]; PT dissociation): 18 (s^−1) × 10^3
- SPR k-2 [18, 22]: 1.0 (s^−1) × 10^3
- SPR k2 [18, 23]: 9.0 (s^−1) × 10^3
- ITC binding stoichiometry n ([19]; V255I gp120 (HxBc2), 25 °C): 1.0 ± 0.04
- ITC −TΔS ([19]; V255I gp120 (HxBc2), 25 °C): 2.9 ± 1.5 kcal/mol
- absolute impact of V255I substitution on enthalpy (ΔH) and entropy (TΔS) ([19]; mutant vs wild type gp120, ITC): 5 to 7 kcal/mol
- concentration above which cytotoxicity was noted (CEM-GFP cells; 18 h): above 25 μM
- cells dying (CEM-GFP cells; at a concentration of 125 μM): ~ 30%
- ITC binding stoichiometry n [20]: 1.1 ± 0.08
- ITC −TΔS [20]: 1.9 ± 0.93 kcal/mol
- disruption of affinity by escape mutations, SPR [21, 24]: four to sixfold
- effect of escape mutations on de-isomerization kinetics, SPR [21, 24]: three to fourfold
- SPR k1 ([21]; V255I gp120, PT association): 2.3 (M^−1 s^−1) × 10^–5
- SPR k-1 ([21]; V255I gp120, PT dissociation): 14 (s^−1) × 10^3
- SPR k-2 ([21]; V255I gp120, de-isomerization, three-state model): 0.72 (s^−1) × 10^3
- SPR k2 ([21]; V255I gp120, isomerization, three-state model): 8.4 (s^−1) × 10^3
